Assay results reported in article PMC9758056.

Key:
[1] = target: Taxol-stabilized microtubules from porcine brain tubulin (porcine) (UniProt P02550); test: co-sedimentation; 200 nM LRRK^RCKW with various concentrations of taxol-stabilized microtubules, 10 minutes at room temperature, 20 mM Hepes pH 7.4, 110 mM NaCl (also 100 and 150 mM NaCl), 0.5 mM MgCl2, 0.5 mM TCEP, 5% glycerol, 20 μM GDP, 20 μM taxol; pelleted at 108,628 g; depletion from the supernatant on SYPRO-Red gels
[2] = target: Subtilisin-treated taxol-stabilized microtubules (C-terminal tubulin tails cleaved), labeled with Alexa Fluor 488 and biotin (bovine) (UniProt Q6B856); test: widefield fluorescence microscopy of labeled protein on tethered microtubules; Alexa Fluor 488-labeled microtubules tethered to a coverslip by biotin-streptavidin; TMR-labeled LRRK^RCKW (6.25 nM–50 nM; 100 nM for the NaCl series) incubated 5 minutes in 20 mM Hepes pH 7.4, 80 mM NaCl, 0.5 mM MgCl2, 0.5 mM TCEP, 5% glycerol, 20 μM GDP; also increasing sodium chloride
Chain of Subtilisin-treated taxol-stabilized microtubules (C-terminal tubulin tails cleaved), labeled with Alexa Fluor 488 and biotin (bovine) (Q6B856 whole entry, looked up): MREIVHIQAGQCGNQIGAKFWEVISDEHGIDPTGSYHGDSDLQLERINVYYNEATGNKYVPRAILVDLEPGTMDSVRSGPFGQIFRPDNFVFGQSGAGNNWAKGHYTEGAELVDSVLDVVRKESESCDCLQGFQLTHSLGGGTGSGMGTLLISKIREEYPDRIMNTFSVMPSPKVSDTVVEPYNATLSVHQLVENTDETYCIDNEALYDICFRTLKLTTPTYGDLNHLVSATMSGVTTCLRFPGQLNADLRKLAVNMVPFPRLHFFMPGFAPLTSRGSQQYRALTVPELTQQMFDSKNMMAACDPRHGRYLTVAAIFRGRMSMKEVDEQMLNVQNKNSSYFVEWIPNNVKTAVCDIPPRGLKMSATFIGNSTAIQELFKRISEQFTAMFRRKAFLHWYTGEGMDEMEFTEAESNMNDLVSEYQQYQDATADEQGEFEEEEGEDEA

Chain of TMR-LRRK2^RCKW (LRRK2^RCKW randomly labeled with BODIPY TMR-X) (Q5S007 1327-2527): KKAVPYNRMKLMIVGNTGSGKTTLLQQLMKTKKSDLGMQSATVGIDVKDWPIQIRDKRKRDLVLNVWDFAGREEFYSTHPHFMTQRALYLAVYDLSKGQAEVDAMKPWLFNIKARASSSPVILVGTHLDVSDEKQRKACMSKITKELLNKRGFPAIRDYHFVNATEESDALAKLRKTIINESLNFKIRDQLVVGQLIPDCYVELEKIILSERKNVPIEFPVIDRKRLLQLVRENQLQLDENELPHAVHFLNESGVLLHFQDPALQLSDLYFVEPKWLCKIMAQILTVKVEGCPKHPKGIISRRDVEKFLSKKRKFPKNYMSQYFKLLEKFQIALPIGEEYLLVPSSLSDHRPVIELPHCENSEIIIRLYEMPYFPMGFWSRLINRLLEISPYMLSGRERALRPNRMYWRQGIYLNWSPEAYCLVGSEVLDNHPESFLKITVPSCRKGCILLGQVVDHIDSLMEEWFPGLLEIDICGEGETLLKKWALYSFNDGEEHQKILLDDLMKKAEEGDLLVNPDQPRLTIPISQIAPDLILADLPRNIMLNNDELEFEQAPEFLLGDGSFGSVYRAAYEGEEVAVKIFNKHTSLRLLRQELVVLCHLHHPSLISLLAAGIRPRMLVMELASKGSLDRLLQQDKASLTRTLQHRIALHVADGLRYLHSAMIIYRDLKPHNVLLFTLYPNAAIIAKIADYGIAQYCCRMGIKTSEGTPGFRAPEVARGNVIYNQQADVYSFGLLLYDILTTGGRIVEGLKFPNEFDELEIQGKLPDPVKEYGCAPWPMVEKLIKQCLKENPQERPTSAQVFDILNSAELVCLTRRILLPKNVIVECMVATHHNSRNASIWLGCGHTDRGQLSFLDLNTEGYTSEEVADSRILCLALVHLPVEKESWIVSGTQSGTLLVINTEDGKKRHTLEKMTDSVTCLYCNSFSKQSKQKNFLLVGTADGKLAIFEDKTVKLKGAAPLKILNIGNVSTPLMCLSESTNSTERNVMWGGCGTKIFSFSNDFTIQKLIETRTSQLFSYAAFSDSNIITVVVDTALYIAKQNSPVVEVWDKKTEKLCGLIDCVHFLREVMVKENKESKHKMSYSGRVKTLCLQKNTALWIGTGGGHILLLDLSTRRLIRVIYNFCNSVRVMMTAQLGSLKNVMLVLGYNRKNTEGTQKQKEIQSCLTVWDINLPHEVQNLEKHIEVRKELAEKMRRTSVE

reduction of pelleting with microtubules against WT LRRK2^RCKW [1] [%] | decrease of microtubule binding against untreated microtubules [2] [%] | Substance
50 |  | LRRK2^RCKW-R1731D (from UniProt Q5S007 1327-2527) (domain or fragment)
 | 50 | TMR-LRRK2^RCKW (LRRK2^RCKW randomly labeled with BODIPY TMR-X) (from UniProt Q5S007 1327-2527) (domain or fragment)
